# Data as given in paper PMC2868900, “Interaction between Thymidylate Synthase and Its Cognate mRNA in Zebrafish Embryos”.
# Columns and labels:
# [1] = molecular target: T1, thymidylate synthase (TS) (zebrafish, UniProt A0ACM8Q3Q5 1-318); experiment: EMSA; 100 ng TS; 37 C, 10 min; 100 ng TS (200 ng in Fig. 5B legend), 1 ng 32P TS mRNA; non-denaturing 5% acrylamide gel (60:1); binding buffer, salt and pH not given (cited ref. 16); details: protein: recombinant, tags: His-tag removed by thrombin, chain copies: 2, hairpin (MFold)
# T1 sequence (A0ACM8Q3Q5 entry or part of it): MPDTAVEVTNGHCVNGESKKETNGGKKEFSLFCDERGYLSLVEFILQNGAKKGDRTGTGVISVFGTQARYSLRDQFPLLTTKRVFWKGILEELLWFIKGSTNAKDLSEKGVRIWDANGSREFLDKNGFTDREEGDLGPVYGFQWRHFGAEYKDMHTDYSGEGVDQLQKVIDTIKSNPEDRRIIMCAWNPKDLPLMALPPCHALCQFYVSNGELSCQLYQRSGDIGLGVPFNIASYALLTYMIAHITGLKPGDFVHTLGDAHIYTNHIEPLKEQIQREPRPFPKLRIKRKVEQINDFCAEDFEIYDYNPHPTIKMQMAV
# [2] = molecular target: T1, thymidylate synthase (TS); experiment: competition EMSA; vs 32P full-length TS mRNA; 37 C, 10 min; 100 ng TS (200 ng in Fig. 5B legend), 1 ng 32P TS mRNA; non-denaturing 5% acrylamide gel (60:1); binding buffer, salt and pH not given (cited ref. 16); details: protein: recombinant; tags: His-tag removed by thrombin; chain copies: 2; hairpin (MFold), 6 nt loop
binder,measurement,setting,value
CUCUUGUUGUAAAGCAGGAU (structured_RNA) [Δ20-23-TS RNA (Δ20-22 in Table 1)],binding result,[1]; 4 nt loop,no binding
CUCUUGUUGUGCUGCAGGAU (structured_RNA) [TS:N20 (TS13-32)],IC50,[2],620 ± 200 pM
CUCUUGUUGUGCAGGAU (structured_RNA) [Δ20-TS RNA],binding result,[1],no binding
CUCUUCAUGUGCUGCAGGAU (structured_RNA) [Δ20-18-TS RNA],binding result,[1]; 5 nt loop,no binding
